Results on 2 molecules are retold here after PMC3025530 (The Biochemical journal, 2010).

The target of experiment [1] is T1, ADAM12-Cat (truncated ADAM12 protein consisting of only the pro and catalytic domains) (human, UniProt O43184-2 29-419).
T1 sequence (looked up): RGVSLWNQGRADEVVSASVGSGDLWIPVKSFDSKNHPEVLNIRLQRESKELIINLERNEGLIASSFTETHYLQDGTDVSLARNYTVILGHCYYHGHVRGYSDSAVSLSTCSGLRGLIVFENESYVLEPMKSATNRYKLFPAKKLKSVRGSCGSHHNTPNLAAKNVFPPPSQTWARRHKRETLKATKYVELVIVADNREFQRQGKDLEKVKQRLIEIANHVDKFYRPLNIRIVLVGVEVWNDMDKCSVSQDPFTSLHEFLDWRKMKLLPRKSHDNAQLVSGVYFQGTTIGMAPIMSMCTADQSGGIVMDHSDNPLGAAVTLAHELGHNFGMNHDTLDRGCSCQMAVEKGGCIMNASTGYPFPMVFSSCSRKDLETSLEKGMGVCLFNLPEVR
Put plainly: enzyme inhibition kinetics.

For experiment [2], the target named is T2, ADAM12-S (shorter secreted form of ADAM12), full-length (human, UniProt O43184-2 29-707).
T2 sequence (looked up): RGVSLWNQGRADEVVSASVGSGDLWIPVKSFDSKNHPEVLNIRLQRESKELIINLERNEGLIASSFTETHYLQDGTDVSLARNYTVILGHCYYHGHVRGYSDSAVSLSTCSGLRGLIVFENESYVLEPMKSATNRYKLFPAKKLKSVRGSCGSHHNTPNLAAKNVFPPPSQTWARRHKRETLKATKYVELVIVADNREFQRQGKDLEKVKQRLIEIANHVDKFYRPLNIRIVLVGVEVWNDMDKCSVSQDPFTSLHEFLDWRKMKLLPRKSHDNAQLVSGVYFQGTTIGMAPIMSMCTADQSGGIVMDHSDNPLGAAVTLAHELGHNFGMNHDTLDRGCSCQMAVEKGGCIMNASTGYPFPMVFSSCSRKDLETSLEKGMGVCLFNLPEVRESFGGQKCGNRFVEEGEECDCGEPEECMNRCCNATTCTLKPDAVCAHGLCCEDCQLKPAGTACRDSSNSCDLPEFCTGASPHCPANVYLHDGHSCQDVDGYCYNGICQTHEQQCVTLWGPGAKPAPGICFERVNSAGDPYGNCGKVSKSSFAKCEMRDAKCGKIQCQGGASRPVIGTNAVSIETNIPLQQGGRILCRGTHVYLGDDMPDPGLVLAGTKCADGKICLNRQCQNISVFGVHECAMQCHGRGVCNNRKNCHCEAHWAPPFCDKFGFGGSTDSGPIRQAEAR
Briefly: enzyme inhibition kinetics.

B1: N-TIMP-3 (N-terminal domain of TIMP-3), wild-type (domain or fragment, human)
chain: CTCSPSHPQDAFCNSDIVIRAKVVGKKLVKEGPFGTLVYTIKQMKMYRGFTKMPHVQYIHTEASESLCGLKLEVNKYQYLLTGRVYDGKMYTGLCNFVERWDQLTLSQRKGLNYRYHLGCN
For the molecule B1, the values for the Ki in experiment [1] and in experiment [2] were 0.93 nM and 4.4 nM, respectively.

B2: TIMP-1 (tissue inhibitor of metalloproteinases 1), full-length (natural protein)
chain: not shown
Consider B2, for which the Ki worked out at 741 nM in experiment [1] and 223 nM in experiment [2].

A word on the Ki: it is the equilibrium dissociation constant of an inhibitor or competing ligand from its target.
